These results are taken from publication PMC6232179 (2018).

Experiment [1] has as its target T1, His-tagged ER luminal domain of IRE1α (IRE1-NLD-His6-KDEL) (red fluorescent tag, covalently labelled (only in the MST of Figure 4C)).
T1 chain: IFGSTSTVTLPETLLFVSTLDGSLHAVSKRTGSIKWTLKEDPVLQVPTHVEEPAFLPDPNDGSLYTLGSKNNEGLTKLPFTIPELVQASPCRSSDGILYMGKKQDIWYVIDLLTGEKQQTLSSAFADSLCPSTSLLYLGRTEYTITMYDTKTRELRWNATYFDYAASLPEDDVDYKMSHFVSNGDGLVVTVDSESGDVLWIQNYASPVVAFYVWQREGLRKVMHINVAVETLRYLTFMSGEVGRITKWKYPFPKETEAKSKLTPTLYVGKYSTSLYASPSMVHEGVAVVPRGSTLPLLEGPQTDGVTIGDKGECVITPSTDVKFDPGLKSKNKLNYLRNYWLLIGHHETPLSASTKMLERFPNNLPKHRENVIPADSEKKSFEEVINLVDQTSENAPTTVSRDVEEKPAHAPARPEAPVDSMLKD
The experiment is described as follows: SPR. For orientation: In SPR one partner is held on a chip, and binding of the other changes the refractive index at the surface.

Experiment [2] addresses T1, His-tagged ER luminal domain of IRE1α …. Briefly: MST; COX-2 labelled.
The target is the same in experiment [3]. Briefly: MST; IRE1-NLD labelled.

B1: PDIA6 (protein)
chain: LYSSSDDVIELTPSNFNREVIQSDSLWLVEFYAPWCGHCQRLTPEWKKAATALKDVVKVGAVDADKHHSLGGQYGVQGFPTIKIFGSNKNRPEDYQGGRTGEAIVDAALSALRQLVKDRLGGRSGGYSSGKQGRSDSSSKKDVIELTDDSFDKNVLDSEDVWMVEFYAPWCGHCKNLEPEWAAAASEVKEQTKGKVKLAAVDATVNQVLASRYGIRGFPTIKIFQKGESPVDYDGGRTRSDIVSRALDLFSDNAPPPELLEIINEDIAKRTCEEHQLCVVAVLPHILDTGAAGRNSYLEVLLKLADKYKKKMWGWLWTEAGAQSELETALGIGGFGYPAMAAINARKMKFALLKGSFSEQGINEFLRELSFGRGSTAPVGGGAFPTIVEREPWDGRDGELPVEDDIDLSDVELDDLGKDEL
A word on the Kd: it is the equilibrium constant for the complex coming apart. High values mean weaker binding, low ones tighter binding. B1 showed an equilibrium dissociation constant (Kd) in experiment [1] of 3530 nM.

B2: COX-2 (prostaglandin endoperoxide synthase 2, PTGS2), purified His-tagged protein (enzyme)
chain: ANPCCSHPCQNRGVCMSVGFDQYKCDCTRTGFYGENCSTPEFLTRIKLFLKPTPNTVHYILTHFKGFWNVVNNIPFLRNAIMSYVLTSRSHLIDSPPTYNADYGYKSWEAFSNLSYYTRALPPVPDDCPTPLGVKGKKQLPDSNEIVEKLLLRRKFIPDPQGSNMMFAFFAQHFTHQFFKTDHKRGPAFTNGLGHGVDLNHIYGETLARQRKLRLFKDGKMKYQIIDGEMYPPTVKDTQAEMIYPPQVPEHLRFAVGQEVFGLVPGLMMYATIWLREHNRVCDVLKQEHPEWGDEQLFQTSRLILIGETIKIVIEDYVQHLSGYHFKLKFDPELLFNKQFQYQNRIAAEFNTLYHWHPLLPDTFQIHDQKYNYQQFIYNNSILLEHGITQFVESFTRQIAGRVAGGRNVPPAVQKVSQASIDQSRQMKYQSFNEYRKRFMLKPYESFEELTGEKEMSAELEALYGDIDAVELYPALLVEKPRPDAIFGETMVEVGAPFSLKGLMGNVICSPAYWKPSTFGGEVGFQIINTASIQSLICNNVKGCPFTSFSVPDPELIKTVTINASSSRSGLDDINPTVLLKERSTEL
modifications: red fluorescent tag, covalently labelled (only in the MST of Figure 4B)
With B2, the Kd was 138 nM in experiment [2] and 155 nM in experiment [3].

B3: BiP (protein)
chain: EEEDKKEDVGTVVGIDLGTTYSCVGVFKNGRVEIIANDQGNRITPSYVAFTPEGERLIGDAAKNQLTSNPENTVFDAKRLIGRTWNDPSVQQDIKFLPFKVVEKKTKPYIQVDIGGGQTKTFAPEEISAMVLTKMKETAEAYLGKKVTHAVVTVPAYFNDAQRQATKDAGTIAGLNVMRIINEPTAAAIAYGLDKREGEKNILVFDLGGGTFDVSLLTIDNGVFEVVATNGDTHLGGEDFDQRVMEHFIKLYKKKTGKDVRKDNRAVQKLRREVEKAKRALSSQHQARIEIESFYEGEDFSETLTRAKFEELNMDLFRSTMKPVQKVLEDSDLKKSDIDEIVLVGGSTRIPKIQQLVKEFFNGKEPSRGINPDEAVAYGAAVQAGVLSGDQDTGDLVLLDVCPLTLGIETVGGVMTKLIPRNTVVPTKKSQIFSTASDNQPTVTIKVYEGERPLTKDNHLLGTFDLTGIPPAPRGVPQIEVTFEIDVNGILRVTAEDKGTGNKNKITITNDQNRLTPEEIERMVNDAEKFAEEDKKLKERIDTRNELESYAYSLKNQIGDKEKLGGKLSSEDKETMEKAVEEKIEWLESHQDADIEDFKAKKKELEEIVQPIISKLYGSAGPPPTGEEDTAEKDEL
For B3, the Kd in experiment [1] was 1660 nM.
